In data set [1] the target is VZV capsid (MCP pORF40, SCP pORF23, Tri1 pORF20, Tri2 pORF41) (varicella-zoster virus (P-Oka strain)) (UniProt P09245). The experiment in a line: cryo-EM structure.
The data set “cryo-EM structure” concerns the molecule itself. The experiment in a line: cryo-EM structure.

Chain of VZV capsid (MCP pORF40, SCP pORF23, Tri1 pORF20, Tri2 pORF41) (varicella-zoster virus (P-Oka strain)) (P09245 whole entry, looked up): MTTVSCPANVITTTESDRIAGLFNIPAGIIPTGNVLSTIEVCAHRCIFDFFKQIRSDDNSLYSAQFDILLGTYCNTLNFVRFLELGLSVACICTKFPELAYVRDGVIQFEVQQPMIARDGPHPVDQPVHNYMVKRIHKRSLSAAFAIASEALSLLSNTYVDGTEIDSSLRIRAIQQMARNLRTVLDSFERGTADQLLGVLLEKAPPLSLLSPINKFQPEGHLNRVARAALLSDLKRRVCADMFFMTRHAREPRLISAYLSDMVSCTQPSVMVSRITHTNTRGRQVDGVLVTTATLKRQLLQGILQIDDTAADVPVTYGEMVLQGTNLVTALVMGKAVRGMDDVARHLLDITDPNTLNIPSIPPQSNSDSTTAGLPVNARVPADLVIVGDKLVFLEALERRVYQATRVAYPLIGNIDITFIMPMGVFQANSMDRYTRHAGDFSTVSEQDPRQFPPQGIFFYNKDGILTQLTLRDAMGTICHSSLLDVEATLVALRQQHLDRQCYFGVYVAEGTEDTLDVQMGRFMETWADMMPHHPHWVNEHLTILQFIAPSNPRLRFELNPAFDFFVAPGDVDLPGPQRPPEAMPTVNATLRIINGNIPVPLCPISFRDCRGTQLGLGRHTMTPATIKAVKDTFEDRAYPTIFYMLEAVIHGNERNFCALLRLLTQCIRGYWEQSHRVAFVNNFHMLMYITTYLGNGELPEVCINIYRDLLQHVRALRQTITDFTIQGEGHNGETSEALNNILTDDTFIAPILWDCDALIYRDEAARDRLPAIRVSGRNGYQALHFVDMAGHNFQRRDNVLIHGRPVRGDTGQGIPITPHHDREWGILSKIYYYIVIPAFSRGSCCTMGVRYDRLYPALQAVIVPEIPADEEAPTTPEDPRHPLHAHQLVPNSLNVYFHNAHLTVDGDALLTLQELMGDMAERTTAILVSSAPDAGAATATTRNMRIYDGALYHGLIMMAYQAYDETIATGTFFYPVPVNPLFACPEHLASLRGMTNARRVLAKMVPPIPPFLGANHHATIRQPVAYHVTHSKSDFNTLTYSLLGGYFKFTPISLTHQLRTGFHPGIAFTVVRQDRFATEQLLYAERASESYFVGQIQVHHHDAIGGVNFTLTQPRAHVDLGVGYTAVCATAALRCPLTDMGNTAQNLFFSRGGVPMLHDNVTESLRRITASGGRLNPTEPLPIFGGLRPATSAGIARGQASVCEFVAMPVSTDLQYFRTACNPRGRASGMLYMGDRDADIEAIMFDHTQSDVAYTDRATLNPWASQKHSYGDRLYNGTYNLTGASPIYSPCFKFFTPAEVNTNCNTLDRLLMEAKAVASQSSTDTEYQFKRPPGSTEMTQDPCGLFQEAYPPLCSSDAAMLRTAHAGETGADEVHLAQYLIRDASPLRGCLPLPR

In data set [1], “VZV capsid-associated tegument complex (CATC)” showed a percent of pentons bound with CATCs of 50.5%.

B1: VZV small capsid protein (SCP) pORF23 (natural protein)
chain: MTQPASSRVVFDPSNPTTFSVEAIAAYTPVALIRLLNASGPLQPGHRVDIADARSIYTVGAAASAARARANHNANTIRRTAMFAETDPMTWLRPTVGLKRTFNPRIIRPQPPNPSMSLGISGPTILPQKTQSADQSALQQPAALAFSGSSPQHPPPQTTSASVGQQQHVVSGSSGQQPQQGAQSSTVQPTTGSPPAAQGVPQSTPPPTQNTPQGGKGQTLSHTGQSGNASRSRRV
For orientation: stoichiometry N means a count of units in the complex or per binding partner. For the molecule B1, in “cryo-EM structure”, the “stoichiometry N” value amounted to 6.

The values are drawn from paper PMC7677223 (Nature microbiology, 2020).
